These results are taken from a protein production outcome set (Wang et al. 2014).

This series is described as follows: label from the status in PepcDB records.
Regarding “MLDKGGGRGKLSSPERFREWTRKTMAKQDELVFVPLGGVGEIGMNLALYGYGPESKRQWIMVDCGVTFAGPDLPGVDLVLPDISYIAEQKKNLKGIIITHAHEDHYGAMNDLWPGLNVPVYASPFTAGMLEAKRAYEGTRAEIPVTIFKAGDRINVGPFEIEAVGVNHSIPEPMSLIIRTPLGNVIHTGDWKIDEAPSLGPLTDEARFRAIGEEGVLALMCDSTNALRDGVSPSEHEVSEGLRQIIESAEGRVAVTTFSSNVGRIRSIAQAAEAAGREVLLLGSSLKRVVNVSQDLGIMEGIKPFLAEDEYGYIPRDRVVVILTGSQGEPRAALAKLSRDEMRNVALASGDTVVFSSRAIPGNEKAIIEIKNGLIEQGVHIVTDNEALVHVSGHPRRNELLRMYEWTKPQILVPVHGEAAHLVAQKELAEQAGISQVPKVRNGNVLRLAPGPAEVINDVPHGRVFKDGNLVGDMDEMGISNRRKLSFAGHVAVNVVLDSRYDFLGDPDVVPFGLPEFDDEDEAMEDTLYDAVLGAVESIPRARRKDLALLRESVRRAVRAAANQSWGKKPIVTVFVTKV”, the protein production entry is on record as “failed”.
Under “MLDLKSYREKELASYDLDVELFNEFNFSVYNVMPLRKAFLISTDKGEKILKKIDYTIEEFKFVLAAVNYIKNENEFNRIIDFNKTQSGEYYCIKNGDLYCVMDMIEGKECEFSNPVDLSISSFGLGQLHSASEGFRYSKIASKNICGKMIKGFKRKKEEVNFLKKMVNLYESLNEFDEIFIKNVDYYLEQIDKSIDIMNKSQYYKLCSEEDKIVLCHHDLAHHNIIIKDEEAYFIDFDYAIIDLKVHDLSNIISKAAKVFNYSIDNSKIIISNYCKSNTLSKNEMEVLFGMLSFPEDFYEIVKSYYTKRKDWSNEEFINKMKRKMANEENRVEFLKNFKEDLKI” stands “failed”; under “MLDLLVVAPHPDDGELGCGGTLARAKAEGLSTGILDLTRGEMGSKGTPEEREKEVAEASRILGLDFRGNLGFPDGGLADVPEQRLKLAQALRRLRPRVVFAPLEADRHPDHTAASRLAVAAVHLAGLRKAPLEGEPFRVERLFFYPGNHPFAPSFLVKISAFIDQWEAAVLAYRSQFTGEAASETVGPKGVEARKAMRRYWGNYLGVDYAEPFVSPLPVLYVPWSRA”, “not failed”; under “MLDLQMKTAVIAVYKNAAFLEENVRLLQKEGFDVIVAADEPEESVREIIEKYSLRATVSERRRGKWRALNDAARIADGEELLFLDSDTIIKNLTGLNGADVVEVVKEVEGKGLLEKLVAVDYLVMAMCAKLASKFGSCLGVNGAAFLIKRRAFEELGGFRCKVNEDTELGIRAALGGYRFAVCGRAVTSVPKSIGEWFRQRERWSVGGTEVFVENLSAIIRKPRLWVPYLVLFYPAIFGLVISLFFTENYIAKLLYLVLPFLALISPKLASIAILAVYEMENVRNLVAGVASFVAWSGLILLASKKLGYRVDMKVLPIYYFIYSPLWTVICLISLVRVAVARVTGRKIELKDWVV”, “failed”.
Turning to “MLDPFSEKAKELLKEFGSMNEFLQAIPSLVDIEEVMNRLKFAKESEISEDILNIEDIRDLASFYAQIGALAYSPYGLELELVKKANLRIYTERIRRRRKIRSDEIGIEVKIAVEFPENDIKTLEKVYGGLPEYIVSLREFLDLVPDEKLSSYYVYDGNVYLRKDDLLKVWSKAFERNVEKAVNIIYEIRDELPEFYRRLAGEIRSFAEKEFSDKFREVQAGELKHHLFPPCVKNALRGVPQGMRNYAITVLLTSFLSYARICPNPPRRNVKIRDCIKDMRVITEEILPIIIEAGNRCSPPLFEDQPNEIKNIWYHLGFGYTANPTLEDSGNSTWYFPPNCDKIKANAPQLCTPDKHCRYIRNPLTYYLRRLYLEEKRRAKHADEGSDKGGKERILQLEHHHHHH”, the protein production result is reported as “failed”.
Consider “MLDSRQAVFFRFFFGVLPQSGRGQVMTELARTIVAGVGGADNIVSLMHCATRLRFKLKDESKAQAEVLKKTPGIIMVVESGGQFQVVIGNHVADVFLAVNSVAGLGEKAQQAPENDDKGNLLNRFVYVISGIFTPLIGLMAATGILKGMLALALTFQWTTEQSGTYLILFSASDALFWFFPIILGYTAGKRFSGNPFTAMVIGGALVHPLILTAFENGQKVDALGLDFLGIPVTLLNYSSSVIPIIFSAWLCSILERRLNAWLPSAIKNFFTPLLCLMVITPITFLLVGPLSTWISELIAAGYLWLYQAVPAFAGAVMGGFWQIFVMFGLHWGLIPLIINNFTVLGYDTMIPLLMPAIMAQVGAALGVFLCERDAQKKVVAGSAALTGLFGITEPAVYGVNLPRKYPFVIACISGALGATIIGYAQTKVYSFGLPGIFTFMQTIPSTGIDFTVWASVIGGVIAIGCAFVGTVMLHFITAKRQSAQVAQQEKTPEVITPEQGGICSPMTGEIVPLIHVADTTFASGLLGKGIAIMPSVGEVRSPVAGRIASLFATLHAIGIESDDGVEILIHVGIDTVKLDGKFFSAHVNVGDKVNTGDRLISFDIPAIREAGFDLTTPVLISNSDDFTDVLPHGTAQINAGEPLLSIIR”, for which the protein production result is “failed”.
Next, “MLDTVRQELNNFRSPLYRNSIYISLTSLVTAVAGFLFWSVAARLYPSSQVGVASALVSAINLTFTVSMLGLNFALIRFYPQYKERAVGSSLVLAVTASFFVSLVYGLIMGGSESFRGVFSAEFLAIFVTFSMVGTAYNILSTYAIAKRKAEHSFMQGLLFALRFVFLFFLVPLGVFGIVGSFGFGLTLGLIYGLIFIDDIKLSLDVEYLKESFRFSLGNYIASMANVAPNYLMPTLVLTMLGKEEAAYFYIAFAIGNLILFIPNAINTSFFVEGSHGLKDMKRTLKKALAFSYLYLAVATVFVWLFGGYVLELFRPEYVKGFGLLKLMVLGGFFVVPVNFSITILNIQKRVREVVGINLLKAALFLGLSYLLIPRFGIEGVGWGWIGAYSISVFMLFVRFFRKVF”: “failed”; “MLEACESKLDIIKNFVPSWFAAVMGTGILAVDSLLYSSYLPILKDVAVGLFYFNVLLFFIFLVPWVLRWIMFKDNALADLKHPVLSAFYPTIAVSCLVLGADFINIGHNMFWGGVFWTLGAIGMFLFSLIVPFYMFKSESIKLDHVNPGWYIPPVGLIVIPIAGSLIMPHLTGVWHELTVLINYFGWGAGFFLYLALLAVVIYRFILHHPLPSAMAPTVWINLGPIGAGIVALINMVNNSPFITIKEPFYIFSFIFWGFGLWWSLMAIIMTLYYVKKLKLPYAMSWWAFIFPLGAYVASSHLVYKIFKFSIIDYIGFGLYWLLFFFWAITLIKTTNKVYTGEVFKGH”: “failed”.
Next, “MLEDLIGKAYLESAEDRRRGDRSEEVEAIRKYIRSARRTVVPNWNAEKVDAINDVLRSFNLREAEHLQFNTNWADLTRMPAVTKALMALDISGADLVIARGRLGVPGSGSLLVIMDSRGRLLSAAMSPPHVIHSMEVREAVRSEMTHALERIGFKR”: “not failed”.
Take “MLEEVERWLDARSWPAADRPVQHLLSAKHATGQSVSVVLPALDEEATVGDIVSVIRRELVLGVPLVDEIVVVDSGSSDRTSEVAAAAGARVVHRDAILPRIPAVPGKGEVLWRSLLVTGGDIVCFVDADLREFSADFVSGIVGPLLTDPDVHLVKAMYDRPLAGAAGQGGRVTELMARPLLNMHWPQLAGFVQPLGGEYAARRSLLERLPFPVGYGVELGMLVDALHLVGLDALAQVDVGVRVHRHQDGRALGRMAAAIYRTAQLRLARGHLVRPALTQFERGVDGFEPRTYAVDTEERPPMTEIAEYAARKVALEHHHHHH”: the protein production result was “not failed”.
Under “MLEEYEKKRDFNKTSEPPARGEEKNSDKPVFVVQRHDATNLHYDFRLEMDGVLKSWAVPKEPPKSPGTRRLAIETEDHPLGYADFEGEIPEGQYGAGRVEIWDRGTFELLKRNEKEIIITLHGEELEGDYVLIKTKYGKEDKGWLFFKKKTGLEHHHHHH” stands “not failed”; under “MLEIPEDRCERHRLFKAIDDAFKAGDFDGLGKALGGSPGWFDERMPFELGLGHPLEYAIYWSPVGFISTLLDAGSDPNYQDHGGFPAIIAALSTDRADRLEVVRVLIEAGADPNMRGVNDWTPLHYSVGIRSAEAIHLLLAAGADPTLATRIDDYTTAFEEADKAGFEAGASLLRDAIARRGFNR”, “failed”; under “MLELAAGFICLTSLLTYVNYRFIGLPPTIGVMVTALMFSLLLQGLSFLGYPGLEDRVQQLIGQIDFGDLLMNWMLSFLLFAGALHVNLADLKSYRWPIGLLATFGVLIATTVIGALAYWIFALFGWHVSPLYCLLFGALISPTDPIAVLGVLRTANASKPLKTTIVGESLFNDGTAVVVFTVLLGIAQLGETPTVGETALLFVHEAVGGVLFGGLIGYAVYLMIKSIEQYQIEVMLTLALVIGGSAMASELHVSGPIAMVVAGLIIGNLGRNLAMNDMTRRYMDGFWELLDDMLNALLFALIGMELLLLPFSWQHLIAASLLAVAILLSRFVTVAPAILLLRRWRKVPHGTIRILTWGGLRGGVSVALALALPNGPERDLLLSITYIVVLLSILFQGLTIGKLVNAVTREPQAKDPAGH”, “failed”.
As to “MLELFMQPEAWVIFATLFALEVVLGVDNVVFISVLCERLPSHQRKLARNLGIGLAVLARIGLVFSITWIMQLTQPLFSVANHAVTGRDMIMILGGAFLLAKSLKELWSWLTHNETDHSTHVRTGLAVVLLQIVAVDAVFSMDSVITAVGLTSEVPLMVAAIIASALVMVMTAEKINNLVTRYPGFKTLALLFLVLLGGLLMAEGFAIHINKGYVYFAMAFGLALELCHIQLKNKQRRTIQRIRPMHDVAT”, the protein production result was “failed”.
Next, “MLEQSLRHYYQLVLVDPILPALRDRITPLSITWLSGIFGLLFIPFVLLDKPYIAISFLLLSGYLDTLDGSLARFQNRASDFGSAMDIVIDRIVEFSAVLALYLFDPQHRATLAILMLGSILLCITSFLVVGIFSNNTTQKSFYYSPGIMERAEAFLFFIFMTLFSSCFNFLAALFCFLVCLTALIRLFEFKKSVQAPS”: “failed”; “MLESVAAEPRRAAATDQAGTEARKQRLRRRLERLIGIAATEGNELVPLRNGDEIFPAMLRAIRTAEHTVDMMTFVYWRGQIARDFAAALAERARAGVRVRLLLDGFGAKQIEEGLLESMNSAGVEVAWFRKPLWLSPLKQNHRCHRKVLVVDEHTAFTGGVGIAEEWGGDARNPSEWRDTHVQVRGPAVDGIAAAFAQNWAECHDELFDERDRFTEHEQSGRATVQVVRGSASFGWQDMQTLVRVMLASAEERFRLSTAYFAPDSYFVDLLCATARRGVQVQILLPGPYTDQRACRLAGQHYYGTLLDAGVEIRQYQPTMLHTKIMTVDGVAALIGSSNFNRRSMEHDEEIMLAVLDETFTAALDRDFEEDRERAEAIVAARWKHRSPVQRLKEAIVAPVRRFL”: “failed”; “MLFFNVASLKYKHHESIQMIIDRIDHLVLTVSDISTTIRFYEEVLGFSAVTFKQNRKALIFGAQKINLHQQEMEFEPKASRPTPGSADLCFITSTPINDVVSEILQAGISIVEGPVERTGATGEIMSIYIRDPDGNLIEISQYVLEHHHHHH”: “not failed”.
